The text below walks through data of publication PMC6582607, “Development of a novel ssDNA aptamer targeting neutrophil gelatinase-associated lipocalin and its application in clinical trials”.

Positions count from the first letter of the chain named. Bounds are passed on as bounds.

B1: NA40 (ssDNA)
DNA: AGCAGCACAGAGGTCAGATGGCGCTGGATAGCAAGATCACGTTATCATCGTAAACCCTATGCGTGCTACCGTGAA
B2: NA39 (ssDNA)
DNA: B1 DNA
B3: NA27 (ssDNA)
DNA: B1 DNA with A47G
B4: NA37 (ssDNA)
DNA: AGCAGCACAGAGGTCAGATGCCCATATGCTACTTTGCACACATCCTGGATAGGCTCCTATGCGTGCTACCGTGAA
B5: NA42 (ssDNA)
DNA: AGCAGCACAGAGGTCAGATGCCGTGCGGATGTACAGGGACTTGGATAGTTTCTGACCTATGCGTGCTACCGTGAA
B6: NA53 (ssDNA)
DNA: B1 DNA
B7: NA36 (ssDNA)
DNA: B4 DNA

T1 sequence (P80188 21-198): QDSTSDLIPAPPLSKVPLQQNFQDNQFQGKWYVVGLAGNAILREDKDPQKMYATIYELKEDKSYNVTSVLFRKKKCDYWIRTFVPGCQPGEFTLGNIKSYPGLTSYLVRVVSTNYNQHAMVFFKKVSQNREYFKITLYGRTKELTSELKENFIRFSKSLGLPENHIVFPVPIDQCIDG

The first data set has as its target T1, NGAL (neutrophil gelatinase-associated lipocalin) (UniProt P80188 21-198). The data set can be described thus: magnetic bead pull-down, qPCR; 20 nM; binding buffer (composition and pH not in material), room temperature, 1 h, NGAL-coated magnetic beads (about 0.20 ug NGAL per uL beads).
As for B1, the binding signal was > 4 dCt (cycles vs bare beads).

As for B2, the binding signal is > 4 dCt (cycles vs bare beads).

With B3, the binding signal was > 4 dCt (cycles vs bare beads).

In the case of B4, the binding signal was > 4 dCt (cycles vs bare beads).

The target of a further data set is T1, NGAL (neutrophil gelatinase-associated …). The data set is described as follows: magnetic bead pull-down, qPCR; binding buffer (composition and pH not in material), room temperature, 1 h, NGAL-coated magnetic beads (about 0.20 ug NGAL per uL beads). A general note: Quantitative PCR measures a nucleic acid by following its amplification.
One may read the Kd as a measure of binding affinity in units of concentration. B5 registered a Kd of 66.5 nM.

As for B6, the affinity, expressed as Kd, was 32.5 nM.

As to B7, the affinity, expressed as Kd, was 43.6 nM.
